Earlier results on one molecule are cited in patent US7141590B2, “Pharmaceutical uses and synthesis of nicotinanilide-N-oxides” (UCB SA, priority 2000, dated 2006).

Bounds are passed on as bounds.

In data set [1] the target is T1, human CXCR2 (IL8RB) chemokine receptor (Homo sapiens, UniProt P25025).
T1 construct: host or cells: CHO cells
T1 sequence (P25025 1-360): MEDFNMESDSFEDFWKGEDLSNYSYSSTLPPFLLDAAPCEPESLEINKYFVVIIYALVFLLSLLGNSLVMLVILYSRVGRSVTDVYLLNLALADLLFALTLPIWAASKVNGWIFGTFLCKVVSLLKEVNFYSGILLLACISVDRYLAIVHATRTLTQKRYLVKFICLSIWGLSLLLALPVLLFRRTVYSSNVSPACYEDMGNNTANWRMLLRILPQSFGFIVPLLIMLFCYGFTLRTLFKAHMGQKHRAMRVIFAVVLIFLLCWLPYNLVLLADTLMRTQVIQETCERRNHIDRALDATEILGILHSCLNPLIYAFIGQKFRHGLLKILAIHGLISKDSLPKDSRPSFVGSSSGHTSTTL
As to conditions: CXCR2 reference data; cited from earlier work.

Data set [2] has as its target T2, human CXCR1 (IL8RA) chemokine receptor (Homo sapiens, UniProt P25024).
T2 construct: host or cells: CHO cells
T2 sequence (P25024 1-350): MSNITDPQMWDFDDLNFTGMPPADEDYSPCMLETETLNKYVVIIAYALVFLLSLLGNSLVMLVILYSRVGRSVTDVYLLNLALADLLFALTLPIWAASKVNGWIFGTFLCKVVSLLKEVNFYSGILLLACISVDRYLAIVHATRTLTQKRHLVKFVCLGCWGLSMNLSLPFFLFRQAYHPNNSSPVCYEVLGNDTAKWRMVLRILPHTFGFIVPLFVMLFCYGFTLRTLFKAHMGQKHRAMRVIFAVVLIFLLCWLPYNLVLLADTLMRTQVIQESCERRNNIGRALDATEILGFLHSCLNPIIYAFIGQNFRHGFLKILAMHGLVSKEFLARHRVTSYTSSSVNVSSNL
As to conditions: CXCR1 reference data; cited from earlier work.

B1: NAP-2: Neutrophil Activating Peptide-2 (protein, UniProt P02775 59-128, looked up)
Neutrophil-activating peptide …: AELRCMCIKTTSGIHPKNIQSLEVIGKGTHCNQVEVIATLKDGRKICLDPDAPRIKKIVQKKLAGDESAD
modifications: Neutrophil-activating peptide 2
The term IC50 denotes the midpoint of a concentration-inhibition curve. Broadly, the Ki is the equilibrium dissociation constant of an inhibitor or competing ligand from its target. With B1, in data set [1], the IC50 was 3.1 nM, the Ki was 2.2 nM and the nH was 0.6. Besides, the IC50 in data set [2] is above 10000 nM.
